We go through two substances from paper PMC9547787.

One test concerns the target SUV39H2 (UniProt Q9H5I1). The experiment in a line: proximity ligation assay (PLA). To be noted: MO3.13 cells; n: EV = 14; H3.1WT = 36; H3.1K27M = 67; H3.3WT = 60; H3.3K27M = 62; parent: est. 1.2; read off a plot.
The next test addresses MBD4. Description: BioID (streptavidin pulldown, LC-MS/MS). To be noted: Flp-In T-Rex HEK293 cells; parent: est. 14; read off a plot.
Another test has as its target MBD3. Description: BioID (streptavidin pulldown, LC-MS/MS). To be noted: Flp-In T-Rex HEK293 cells; parent: est. 41; read off a plot.
The target of another test is BAZ2A. The experiment in a line: BioID (streptavidin pulldown, LC-MS/MS). The conditions noted are these: Flp-In T-Rex HEK293 cells; parent: est. 220; read off a plot.
In a further test the target is MECP2. The experiment in a line: BioID (streptavidin pulldown, LC-MS/MS). The conditions noted are these: Flp-In T-Rex HEK293 cells; parent: est. 17; read off a plot.

Sequence of UniProt Q9H5I1 (Q9H5I1 whole entry): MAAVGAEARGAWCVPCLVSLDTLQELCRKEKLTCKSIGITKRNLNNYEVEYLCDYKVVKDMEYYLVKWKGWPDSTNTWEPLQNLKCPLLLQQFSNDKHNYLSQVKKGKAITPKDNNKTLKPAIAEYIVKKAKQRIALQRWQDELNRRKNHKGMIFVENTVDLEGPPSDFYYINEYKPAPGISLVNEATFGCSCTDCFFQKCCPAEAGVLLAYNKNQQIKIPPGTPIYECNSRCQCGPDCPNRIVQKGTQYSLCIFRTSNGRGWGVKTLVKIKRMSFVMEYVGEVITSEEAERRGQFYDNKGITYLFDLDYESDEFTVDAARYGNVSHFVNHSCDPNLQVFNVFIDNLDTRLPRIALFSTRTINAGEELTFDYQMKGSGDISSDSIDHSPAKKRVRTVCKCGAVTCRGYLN

Turning to “H3.1WT-FLAG/HA (from UniProt P68431) K27M”, the response (relative foci (relative to H3.3WT)) with SUV39H2 worked out at 0.54.
Turning to “H3.3WT (FLAG-BirA* fusion, BioID bait) (from UniProt P84243) G34R”, the response (peptide count) stood at 13 with MBD4, 23 in the test with MBD3, 83 in the test with BAZ2A and 4.1 with MECP2.
